“And” between values parts separate entries of the source, which are not always exact repeats. Identical values can stand only once.

The target of this experiment is human IL-22 receptor complex IL22R1 and IL10R2, overexpressed on HEK 293 cells (human) (UniProt Q8N6P7). Put plainly: cell-based or functional assay.
Sequence of human IL-22 receptor complex IL22R1 and IL10R2, overexpressed on HEK 293 cells (human) (Q8N6P7 16-574, chain 1 of 2): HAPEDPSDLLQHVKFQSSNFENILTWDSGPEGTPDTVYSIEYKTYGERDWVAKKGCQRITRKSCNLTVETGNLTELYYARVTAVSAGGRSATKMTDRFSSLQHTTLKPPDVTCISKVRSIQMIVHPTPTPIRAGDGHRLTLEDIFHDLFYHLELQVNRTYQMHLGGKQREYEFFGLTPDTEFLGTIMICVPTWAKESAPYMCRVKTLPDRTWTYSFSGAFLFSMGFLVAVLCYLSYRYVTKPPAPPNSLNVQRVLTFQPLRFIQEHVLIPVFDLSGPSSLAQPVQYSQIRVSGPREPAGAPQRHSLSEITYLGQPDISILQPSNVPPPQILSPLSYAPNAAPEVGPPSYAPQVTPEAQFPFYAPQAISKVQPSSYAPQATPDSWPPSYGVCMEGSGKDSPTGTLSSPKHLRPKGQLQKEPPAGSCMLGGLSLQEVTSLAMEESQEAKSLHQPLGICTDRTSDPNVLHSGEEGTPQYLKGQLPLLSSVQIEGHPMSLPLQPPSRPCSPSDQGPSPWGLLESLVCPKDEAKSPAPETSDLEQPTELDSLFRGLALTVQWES
Sequence of human IL-22 receptor complex IL22R1 and IL10R2, overexpressed on HEK 293 cells (human) (Q08334 20-325, chain 2 of 2, further chain): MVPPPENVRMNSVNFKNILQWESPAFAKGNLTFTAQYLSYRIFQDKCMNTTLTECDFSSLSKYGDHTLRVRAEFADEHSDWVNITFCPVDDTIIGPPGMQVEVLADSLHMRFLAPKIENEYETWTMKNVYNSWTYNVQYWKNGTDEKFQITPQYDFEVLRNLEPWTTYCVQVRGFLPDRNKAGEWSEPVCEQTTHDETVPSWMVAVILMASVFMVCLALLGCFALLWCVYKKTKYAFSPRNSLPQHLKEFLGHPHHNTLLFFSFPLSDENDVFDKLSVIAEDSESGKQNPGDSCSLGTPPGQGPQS

As to “native IL-22 protein produced in CHO cells (from UniProt Q9GZX6 34-179) (ligand)”, the potency in the STAT3 luciferase reporter assay, against the IL-22 Fc fusion proteins was 2 fold and 3 fold.
